Measurements reported in PMC4108183.

B1: yeast RDL1 (Saccharomyces cerevisiae S288C) (protein)
chain: MWKAVMNAWNGTESQSKNVSNIQSYSFEDMKRIVGKHDPNVVLVDVREPSEYSIVHIPASINVPYRSHPDAFALDPLEFEKQIGIPKPDSAKELIFYCASGKRGGEAQKVASSHGYSNTSLYPGSMNDWVSHGGDKLDL
B2: human TSTD1 (Homo sapiens) (protein)
chain: MAGAPTVSLPELRSLLASGRARLFDVRSREEAAAGTIPGALNIPVSELESALQMEPAAFQALYSAEKPKLEDEHLVFFCQMGKRGLQATQLARSLGYTGARNYAGAYREWLEKES

Tests used:
purified protein [1] = substrate: CC(C)(COP(=O)(O)OP(=O)(O)OC[C@H]1O[C@@H](n2cnc3c(N)ncnc32)[C@H](O)[C@@H]1OP(=O)(O)O)[C@@H](O)C(=O)NCCC(=O)NCCS; assay: purified protein; conditions: alternate sulfane sulfur acceptor; pH 9.0; 37.0 °C
purified protein [2] = substrate: O=S(O)(O)=S; assay: purified protein; conditions: pH 9.0, 37.0 °C

Row | Protein | Km (purified protein [1]) [µM] | Km (purified protein [2]; sulfane sulfur transferred to active site cysteine (Cys98)) [µM] | Km (purified protein [2]; sulfane sulfur transferred to active site cysteine (Cys79)) [µM]
1 | B1 | 150 ± 50 | 2000 ± 500 | 
2 | B2 | 90 ± 10 |  | 14000 ± 2000
